Reference: patent US20190127480A1 (Regeneron, published 2019)

Experiments:
[1] = target: T1, human CD3 expressed on cells (Jurkat cells; human T-cells of PBMC) (human, UniProt P09693 23-182; P20963 22-164); assay: cell-based or functional assay
[2] = target: cynomolgus monkey CD3 expressed on monkey T-cells (PBMCs) (cynomolgus monkey, UniProt Q95LI5 22-198; Q95LI8 22-171); assay: cell-based or functional assay
[3] = target: T1, human CD3 expressed on cells (Jurkat …); assay: cell-based or functional assay; remark: listed apart in the source
[4] = target: T1, human CD3 expressed on cells (Jurkat …); assay: FACS titration on Jurkat cells, monovalent 1-arm antibody
Protocol: FACS data was acquired using the following protocol: Cells at 2×10⁵ per well were incubated with serially diluted antibodies for 30 min on ice. Post incubation, cells were washed and secondary antibody was added and incubated for an additional 30 minutes. After incubation, cells were washed, re-suspended in cold PBS containing 1% BSA and analyzed by flow cytometry with viable Jurkat cells gated by side and forward scatters. The EC₅₀s for cell binding titration were determined using Prism software with values calculated using a 4-parameter non-linear regression analysis.

[5] = target: T2, human CD3 on CD3-expressing cells (Jurkat, human T cells) (human, UniProt P07766 23-207; P04234 22-171); assay: FACS on Jurkat cells
T2 construct: On cells CD3 stands within the T cell receptor complex (also gamma and zeta chains); also called human CD3 expressing Jurkat cells
Protocol: (§1) Briefly, 2×10⁵ cells/well of human CD3-expressing Jurkat, cynomolgus T, or human PSMA-specific expressing cells were incubated with a serial dilution of bispecific antibodies for 30 min at 4° C. After incubation, cells were washed and a goat F(ab′)₂ anti-human Fcγ PE labeled secondary (Jackson Immunolabs) was added to the cells for an additional 30 min. Next, cells were washed, re-suspended in cold PBS+1% BSA and analyzed via flow cytometry on a BD FACS Canto II.
(§2) For FACS analysis, cells were gated by forward scatter height vs. forward scatter area for single events selection, followed by side and forward scatters. The EC₅₀ for cell binding titration was determined using Prism software. Values were calculated using 4-parameter non-linear regression analysis.

[6] = target: T3, human PSMA on PSMA-expressing cells (human, UniProt Q04609 1-750); assay: FACS on B16F10.9/PSMA cells
T3 construct: Cell line is named under assay or readout in each row; also called B16F10.9/hPSMA; B16F10.9/PSMA
Protocol: as §1, §2

[7] = target: T4, soluble heterodimeric hCD3ε/δ.mFc protein (human); assay: SPR MASS-1, 37 C, antigen-capture (hCD3ε/δ.mFc captured), antibody injected
T4 construct: also called soluble human CD3; soluble heterodimeric CD3 protein
T4 chain 1: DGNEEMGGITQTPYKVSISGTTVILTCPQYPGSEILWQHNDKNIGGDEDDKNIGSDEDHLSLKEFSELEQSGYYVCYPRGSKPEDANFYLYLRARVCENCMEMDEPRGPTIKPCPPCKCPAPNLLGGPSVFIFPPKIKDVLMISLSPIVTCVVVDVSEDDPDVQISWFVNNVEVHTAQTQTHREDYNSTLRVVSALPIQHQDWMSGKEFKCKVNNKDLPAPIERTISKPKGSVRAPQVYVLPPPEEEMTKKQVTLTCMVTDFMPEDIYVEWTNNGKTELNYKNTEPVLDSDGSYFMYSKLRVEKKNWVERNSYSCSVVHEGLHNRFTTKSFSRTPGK
T4 chain 2: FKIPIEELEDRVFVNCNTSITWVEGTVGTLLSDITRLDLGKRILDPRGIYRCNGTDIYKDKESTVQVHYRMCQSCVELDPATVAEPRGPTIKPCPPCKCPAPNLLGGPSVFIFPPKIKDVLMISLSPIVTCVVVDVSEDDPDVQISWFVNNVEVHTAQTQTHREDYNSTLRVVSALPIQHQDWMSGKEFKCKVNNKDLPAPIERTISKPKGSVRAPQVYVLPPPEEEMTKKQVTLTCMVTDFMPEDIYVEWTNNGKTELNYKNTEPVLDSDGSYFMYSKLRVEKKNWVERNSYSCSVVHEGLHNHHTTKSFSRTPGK
Protocol: Measurements were conducted on a Sierra Sensors MASS-1 instrument.
In the antigen-capture format, the MASS-1 high-density amine sensor surface was derivatized with a goat anti-mouse IgG2a polyclonal antibody (Southern Biotech). Soluble heterodimeric CD3 protein was captured and the respective antibodies were injected over the captured antigen.
Kinetic association (kₐ) and dissociation (kd) rate constants were determined by processing and fitting the data to a 1:1 binding model using MASS-1 AnalyserR2 curve fitting software. Binding dissociation equilibrium constants (KD) and dissociative half-lives (t_{1/2}) were calculated from the kinetic rate constants as: KD (M)=kd/kₐ; and t_{1/2} (min)=(ln 2/(60*kd).

T3 sequence (Q04609 whole entry): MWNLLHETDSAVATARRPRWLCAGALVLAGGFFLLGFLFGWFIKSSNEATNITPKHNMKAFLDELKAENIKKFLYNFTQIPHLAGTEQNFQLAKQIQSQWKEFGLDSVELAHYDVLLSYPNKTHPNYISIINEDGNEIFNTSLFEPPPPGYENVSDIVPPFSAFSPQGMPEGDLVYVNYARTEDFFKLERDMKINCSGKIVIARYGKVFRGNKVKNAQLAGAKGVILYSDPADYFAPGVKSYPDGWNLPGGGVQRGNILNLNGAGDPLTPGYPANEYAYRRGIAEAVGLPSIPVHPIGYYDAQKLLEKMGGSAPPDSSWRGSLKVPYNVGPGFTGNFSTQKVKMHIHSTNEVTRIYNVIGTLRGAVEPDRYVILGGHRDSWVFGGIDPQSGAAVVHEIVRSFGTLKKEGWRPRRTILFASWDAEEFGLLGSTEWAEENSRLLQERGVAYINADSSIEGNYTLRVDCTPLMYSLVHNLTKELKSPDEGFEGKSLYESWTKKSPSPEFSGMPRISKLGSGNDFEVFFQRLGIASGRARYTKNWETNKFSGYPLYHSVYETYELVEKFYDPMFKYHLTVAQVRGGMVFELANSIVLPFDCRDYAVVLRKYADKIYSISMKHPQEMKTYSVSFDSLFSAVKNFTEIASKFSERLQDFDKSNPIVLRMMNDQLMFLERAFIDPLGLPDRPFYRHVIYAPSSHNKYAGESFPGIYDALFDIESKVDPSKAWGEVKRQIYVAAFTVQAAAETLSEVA
Sequence of cynomolgus monkey CD3 expressed on monkey T-cells (PBMCs) (Q95LI5 22-198, chain 1 of 2): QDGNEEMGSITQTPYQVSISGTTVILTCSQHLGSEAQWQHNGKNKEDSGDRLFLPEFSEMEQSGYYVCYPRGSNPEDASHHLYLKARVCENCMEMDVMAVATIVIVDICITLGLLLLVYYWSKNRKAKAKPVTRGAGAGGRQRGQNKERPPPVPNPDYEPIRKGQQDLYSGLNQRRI
Sequence of cynomolgus monkey CD3 expressed on monkey T-cells (PBMCs) (Q95LI8 22-171, chain 2 of 2): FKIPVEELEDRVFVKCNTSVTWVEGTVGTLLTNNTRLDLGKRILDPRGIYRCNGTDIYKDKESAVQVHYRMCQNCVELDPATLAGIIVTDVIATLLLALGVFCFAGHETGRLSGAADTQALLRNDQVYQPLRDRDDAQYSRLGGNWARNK
T2 sequence (P07766 23-207 limits assumed, chain 1 of 2): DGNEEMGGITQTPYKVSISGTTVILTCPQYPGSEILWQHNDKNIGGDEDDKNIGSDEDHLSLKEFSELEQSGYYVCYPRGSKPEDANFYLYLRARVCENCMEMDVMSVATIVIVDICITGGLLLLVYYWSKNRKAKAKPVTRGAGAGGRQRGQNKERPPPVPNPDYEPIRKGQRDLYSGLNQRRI
T2 sequence (P04234 22-171 limits assumed, chain 2 of 2): as the sequence (Q95LI8 22-171, chain 2 of 2) above, with V5I, K15N, V20I, T32S, N33D, N34I, A64T, N74S, L83V, R141H counted along it
T1 sequence (chain, as listed by the source, chain 1 of 4): as the sequence (P07766 23-207 limits assumed, chain 1 of 2) above
T1 sequence (chain, as listed by the source, chain 2 of 4): as the sequence (Q95LI8 22-171, chain 2 of 2) above, with V5I, K15N, V20I, T32S, N33D, N34I, A64T, N74S, L83V, R141H counted along it
T1 sequence (P09693 23-182, chain 3 of 4): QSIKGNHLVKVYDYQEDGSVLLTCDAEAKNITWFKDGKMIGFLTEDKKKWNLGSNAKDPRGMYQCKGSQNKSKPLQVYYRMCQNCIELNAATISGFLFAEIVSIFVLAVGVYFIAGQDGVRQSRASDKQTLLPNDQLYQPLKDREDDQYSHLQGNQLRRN
T1 sequence (P20963 22-164, chain 4 of 4): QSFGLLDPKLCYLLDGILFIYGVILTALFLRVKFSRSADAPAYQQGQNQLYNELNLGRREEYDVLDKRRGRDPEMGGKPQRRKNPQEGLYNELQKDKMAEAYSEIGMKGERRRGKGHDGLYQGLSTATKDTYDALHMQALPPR

Row | EC50 [M] hPBMC Proliferation [1] [M] | EC50 [M] mfPBMC Proliferation [2] [M] | EC50 [4] [nM] | EC50 [5] [nM] | EC50 [6] [nM] | Kd [7] [nM] | T½ [7] [min] | koff [7] [s⁻¹] | kon [7] [M⁻¹ s⁻¹] | Binder | U937 Cytotoxicity Human T-cells [3] [pM]
1 | 2.13e-12 | 1.38e-11 | 1.83 | – | – | – | – | – | – | H1H7242P (antibody, human IgG1, V domains shown, Monovalent 1-arm format: second Fab removed, only the Fc portion (CH2-CH3) expressed; human IgG1 Fc; tied by the numerical identifier; also called H1H7242B) VH: EVQLVESGGGLVQPGRSLRLSCAASGFTFDDYTMHWVRQGPGKGLEWVSDIGWNSNSIGYADSVKGRFTISRDNAKNSLYLQMNSLRPEDTALYFCVKDKSGYGKFFIGLDVWGQGTMVTVSS VL: not shown | 7.5
2 | 2.8e-12 | 8.88e-11 | 1.09 | – | – | – | – | – | – | H1H7254P (antibody, human IgG1, V domains shown, Monovalent 1-arm format: second Fab removed, only the Fc portion (CH2-CH3) expressed; human IgG1 Fc; tied by the numerical identifier; also called H1H7254B) VH: EVQLVESGGGVVQPGRSLRLSCAASGFKFDGYTMHWVRQGPGKGLEWVSDIGWNSNTIGYADSVKGRFTISRDNAKNSLYLQMNSLRPEDTALYFCVKDKSGYGKFFIGLDVWGQGTMVTVSS VL: not shown | 4.18
3 | 1.3e-12 | 1.83e-11 | 1.45 | – | – | – | – | – | – | H1H7251P (antibody, human IgG1, V domains shown, Monovalent 1-arm format: second Fab removed, only the Fc portion (CH2-CH3) expressed; human IgG1 Fc; tied by the numerical identifier; also called H1H7251B) VH: EVQLVESGGGLVQPGRSLRLSCAASGFTFADYTMHWVRQGPGTGLEWVSDIGWSGGSLGYADSVKGRFTISRDNAKNSLYLEMNNLRPEDTALYYCVKDKSGYGKFQYGLDVWGQGTTVTVSS VL: not shown | 1.81
4 | 1.05e-12 | 2.05e-11 | 1.01 | – | – | – | – | – | – | H1H7241P (antibody, human IgG1, V domains shown, Monovalent 1-arm format: second Fab removed, only the Fc portion (CH2-CH3) expressed; human IgG1 Fc; tied by the numerical identifier; also called H1H7241B) VH: EVQLVESGGGLVQPGRSLRLSCAASGFTFADYTMHWVRQGPGKGLEWVSDIGWNSNTIGYADSVKGRFAISRDNAKNSLYLQMNSLRPEDTALYYCVKDKSGYGKFQYGLDVWGQGTTVTVSS VL: not shown | 12.3
5 | 2.17e-12 | 1.11e-11 | 1.07 | – | – | – | – | – | – | H1H7258P (antibody, human IgG1, V domains shown, Monovalent 1-arm format: second Fab removed, only the Fc portion (CH2-CH3) expressed; human IgG1 Fc; tied by the numerical identifier; also called H1H7258B) VH: QVQLVESGGGLVQPGRSLRLSCAASGFTFDDYTMHWVRQGPGKGLEWVSDIGWNSNTIGYADSVKGRFTISRDNARNSLYLQMNSLRPEDTALYYCVKDKSGYGKFQYGLDVWGQGTTVTVSS VL: not shown | 15.3
6 | 2.43e-12 | 7.27e-11 | 1.37 | – | – | – | – | – | – | H1H7250P (antibody, human IgG1, V domains shown, Monovalent 1-arm format: second Fab removed, only the Fc portion (CH2-CH3) expressed; human IgG1 Fc; tied by the numerical identifier; also called H1H7250B) VH: QVQLVESGGGLVQPGRSLRLSCAASGFTFDDYTMHWVRQGPGKGLEWVSDIGWNSNTKGYADSVKGRFTISRDNAKNSLYLQMNSLRPEDTALYFCVKDKSGYGKFFIGLDVWGQGTMVTVSS VL: not shown | 5.91
7 | 2.37e-12 | 4.84e-12 | 1.5 | – | – | – | – | – | – | H1H7194P (antibody, human IgG1, V domains shown, Monovalent 1-arm format: second Fab removed, only the Fc portion (CH2-CH3) expressed; human IgG1 Fc; tied by the numerical identifier; also called H1H7194B) VH: EVQLVESGGGLVQPGRSLRLSCAASGFTFGDYTMHWVRQAPGKGLEWVSDISWNSGSKDYADSVKGRFTISRDNAKNSLYLQMNSLRTEDTAFYYCAKDSRGYGLYYHLGLDVWGQGTTVTVSS VL: not shown | 4.71
8 | 2.42e-12 | 1.36e-12 | 0.342 | – | – | – | – | – | – | H1H7195P (antibody, human IgG1, V domains shown, Monovalent 1-arm format: second Fab removed, only the Fc portion (CH2-CH3) expressed; human IgG1 Fc; tied by the numerical identifier; also called H1H7195B) VH: EVQLVESGGGLVQPGRSLRLSCAASGFTFADYTMHWVRQAPGKGLEWVSDISWNSGSIAYADSVKGRFTISRDNAKNSLYLQMNSLRTEDTAFYYCAKDSRGYGHYKYLGLDVWGQGTTVTVSS VL: not shown | 6.1
9 | 1.27e-12 | 1.4e-08 | 34.4 | – | – | – | – | – | – | H1H7196P (antibody, human IgG1, V domains shown, Monovalent 1-arm format: second Fab removed, only the Fc portion (CH2-CH3) expressed; human IgG1 Fc; tied by the numerical identifier; also called H1H7196B) VH: EVQLVESGGGMVQPGRSLRLSCAASGFPFNDYTMHWVRQVPGRGLEWVSDISWNSGSKGYADSVKGRFIISRDNAKNSLYLQMNSLRVEDTALYYCVKDGSGYGRFHYYAMDVWGQGTTVTVSS VL: not shown | 19.6
10 | – | – | – | 47.2 | 1.16 | 64.2 | 4.7 | 0.00247 | 38500 | BSPSMA/CD3-1200 (bispecific antibody, IgG4, V domains shown, modified (chimeric) IgG4 Fc domain; also called PSMA-VH-11810 x CD3-VH-G12) VH 1: QVQLVESGGGVVQPGRSLRLSCAASGFTFSSYGMHWVRQAPGKGLEWVAVISYAGNNKYYADSVKGRFTVSRDNSKKTLYLQMNSLRSEDTAVYYCAKDSYYDFLTDPDVLDIWGQGTMVTVSS VH 2: EVQLVESGGGLVQPGRSLRLSCAASGFTFDDYSMHWVRQAPGKGLEWVSGISWNSGSIGYADSVKGRFTISRDNAKNSLYLQMNSLRAEDTALYYCAKDGSGYGKFYHYGLDVWGQGTTVTVSS VL: DIQMTQSPSSLSASVGDSVTITCRASQSINNYLNWYQQKPGKAPKLLIYTASSLLSGVPSRFSGSGSGTDFTLTISGLHPEDFATYFCQQSFSTPPITFGQGTRLDIK | –
11 | – | – | – | 56.8 | 1.03 | 37.8 | 4.7 | 0.00243 | 64300 | BSPSMA/CD3-1600 (bispecific antibody, IgG4, V domains shown, modified (chimeric) IgG4 Fc domain; also called PSMA-VH-11810 x CD3-VH-G16) VH 1: QVQLVESGGGVVQPGRSLRLSCAASGFTFSSYGMHWVRQAPGKGLEWVAVISYAGNNKYYADSVKGRFTVSRDNSKKTLYLQMNSLRSEDTAVYYCAKDSYYDFLTDPDVLDIWGQGTMVTVSS VH 2: EVQLVESGGGLVQPGRSLRLSCAASGFTFDDYSMHWVRQAPGKGLEWVSGISWNSGSKGYADSVKGRFTISRDNAKNSLYLQMNSLRAEDTALYYCAKDGSGYGKFYHYGMDVWGQGTTVTVSS VL: DIQMTQSPSSLSASVGDSVTITCRASQSINNYLNWYQQKPGKAPKLLIYTASSLLSGVPSRFSGSGSGTDFTLTISGLHPEDFATYFCQQSFSTPPITFGQGTRLDIK | –
12 | – | – | – | 60.7 | 1.35 | 115 | 2.3 | 0.00509 | 44300 | BSPSMA/CD3-1900 (bispecific antibody, IgG4, V domains shown, modified (chimeric) IgG4 Fc domain; also called PSMA-VH-11810 x CD3-VH-G19) VH 1: QVQLVESGGGVVQPGRSLRLSCAASGFTFSSYGMHWVRQAPGKGLEWVAVISYAGNNKYYADSVKGRFTVSRDNSKKTLYLQMNSLRSEDTAVYYCAKDSYYDFLTDPDVLDIWGQGTMVTVSS VH 2: EVQLVESGGGLVQPGRSLRLSCAASGFTFDDYSMHWVRQAPGKGLEWVSGISWNSGSIGYADSVKGRFTISRDNAKNSLYLQMNSLRAEDTALYYCAKDGSGYGKFYHYGMDVWGQGTTVTVSS VL: DIQMTQSPSSLSASVGDSVTITCRASQSINNYLNWYQQKPGKAPKLLIYTASSLLSGVPSRFSGSGSGTDFTLTISGLHPEDFATYFCQQSFSTPPITFGQGTRLDIK | –
13 | – | – | – | 93 | 1.21 | 82.9 | 1.9 | 0.00611 | 73600 | BSPSMA/CD3-1500 (bispecific antibody, IgG4, V domains shown, modified (chimeric) IgG4 Fc domain; also called PSMA-VH-11810 x CD3-VH-G15) VH 1: QVQLVESGGGVVQPGRSLRLSCAASGFTFSSYGMHWVRQAPGKGLEWVAVISYAGNNKYYADSVKGRFTVSRDNSKKTLYLQMNSLRSEDTAVYYCAKDSYYDFLTDPDVLDIWGQGTMVTVSS VH 2: EVQLVESGGGLVQPGRSLRLSCAASGFTFDDYSMHWVRQAPGKGLEWVSGISWNSGSKGYADSVKGRFTISRDNAKNSLYLQMNSLRAEDTALYYCAKDGSGYGKFYYYGLDVWGQGTTVTVSS VL: DIQMTQSPSSLSASVGDSVTITCRASQSINNYLNWYQQKPGKAPKLLIYTASSLLSGVPSRFSGSGSGTDFTLTISGLHPEDFATYFCQQSFSTPPITFGQGTRLDIK | –
